This is an account of results in the RNAGym collection of RNA variant scans (doi:10.1073/pnas.2313332121).

First the molecules themselves.
B1: TPR t1 (parent)
chain: GACCAAUCUGCCCUCAGAGCUCGAGAACAUCUUCGGAUGCAGAGGAGGCAGGCUUCGGUGGCGCGAUAGCGCCAACGUCCUCAACCUCCAAUGCAUCCCACCACAUGAUGAUGCCUGAAGAGCCUUGGUUUUUUG

The data set covers variants of B1. The experiment in a line: polymerase ribozyme fitness, log enrichment relative to wild type (log ratio); higher = more active; in vitro selection for triplet polymerase activity. In a few lines: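 Genotype fitness is the logarithm of its enrichment divided by wild-type enrichment, using inverse-variance-weighted averages of replicates. That logarithm is base 2. Enrichment was measured by Illumina sequencing of input and output libraries from one triplicate in vitro selection round, with frozen incubation at −7 °C, on PCR-built, transcribed mutant libraries of each subunit of a heterodimeric triplet polymerase ribozyme, retaining genotypes with ≥10 input reads and ≥1 read per output.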
For A26U C62U G71C G93A G120U, the “polymerase ribozyme fitness (log ratio)” value is -3.6.
To C13A G42C A66C C99U C101U C114U G127U belongs -6.24.
As for G71U C99U, the “polymerase ribozyme fitness (log ratio)” value was -4.69.
G39A G69U C99A: the “polymerase ribozyme fitness (log ratio)” value was -4.04.
Then C13U A46U C56A C85U, with -2.14; and C124A U130A, with 1.09; and U7G A18G C62U G120C U125A, with -2.15.
For C8U G39A C40A C62U G93U A111C, the “polymerase ribozyme fitness (log ratio)” value was -0.367.
Then U9C U14C U33G G51A G69U A118G, with -5.88; and C34U C115U, with -5.45.
Then C3A C40A G93U G110U, with -3.31; and C88G C124U, with 0.871.
In the case of C40U C115A G128A, the “polymerase ribozyme fitness (log ratio)” value was -2.68.
For the variant C11U C53U G110A U129A, the “polymerase ribozyme fitness (log ratio)” value is -3.35.
Regarding A2G A46C, the “polymerase ribozyme fitness (log ratio)” value is -0.998.
Then A16G C62U, with -1.57; and C56G C62U, with 0.102; and C8G C13G A16U C49A C70U U129C, with -1.75.
Regarding A2G C12U G47A G63U G113U, the “polymerase ribozyme fitness (log ratio)” value was -4.51.
To C8A C12A C79U C80U C114U belongs -4.99; to A16G U106A, -0.109; to C3U C13G A111C, -1.32.
Regarding A5U C40U G48A, the “polymerase ribozyme fitness (log ratio)” value is -2.13.
Then C13U A29G G52A C102U, with -4.34; and C115A G127C, with -1.67.
To A66U A105U belongs -4.44.
Take G47U G57U G93U: the “polymerase ribozyme fitness (log ratio)” value is -3.51.
On to C53A G71U C86U A100U G110U, for which the “polymerase ribozyme fitness (log ratio)” value is -4.31.
For A5U C70G, the “polymerase ribozyme fitness (log ratio)” value was -2.83.
Regarding G69U U133G, the “polymerase ribozyme fitness (log ratio)” value is 0.15.
Then C15U A74U A83C A100U U116A, with -5.53; and A6C G42U G63C C79U, with -2.06.
Regarding G23A G63U, the “polymerase ribozyme fitness (log ratio)” value is -7.02.
Turning to C11A C94A U116A G120C, the “polymerase ribozyme fitness (log ratio)” value was -0.809.
Turning to A41U G61A G127C, the “polymerase ribozyme fitness (log ratio)” value is -2.63.
To C8U C20U U78C C82G C123U belongs 0.246; to U9C G47C U132C, -1.22.
Then A74G C123U, with 1.13.
As to U59G C88G, the “polymerase ribozyme fitness (log ratio)” value was -2.09.
To C34A C82A belongs -2.72; to C20G G48A G52A, -6; to A29G G69U, -0.507.
C101U U109C: the “polymerase ribozyme fitness (log ratio)” value is -3.93.
Take C13A C56G: the “polymerase ribozyme fitness (log ratio)” value was -2.27.
In the case of G25U C34U G63C G93C G117C A121C G122A G127U, the “polymerase ribozyme fitness (log ratio)” value is -6.74.
As for U87A G113C, the “polymerase ribozyme fitness (log ratio)” value is -2.81.
As to C11G A27U C49A A84U C114A G120A U125A, the “polymerase ribozyme fitness (log ratio)” value is -5.59.
C62G C101U: the “polymerase ribozyme fitness (log ratio)” value is -1.28.
Then C72U A84G C114A C115A, with -6.51.
As to C12A G128U, the “polymerase ribozyme fitness (log ratio)” value is -2.12.
To A2U A5C G69A C86U belongs -6.09; to U21A U59G U81G C82G C115U, -4.27.
To G71A C85G U126C belongs -2.15.
For the variant G42C U96G, the “polymerase ribozyme fitness (log ratio)” value is -1.41.
Then C70G G127C, with -3.14; and G110A U132A, with -1.37; and C28G, with -2.31.
Then A2C C8A U131A, with -1.54; and G44A G110A, with -2.08.
Consider G45A G52C, for which the “polymerase ribozyme fitness (log ratio)” value is -1.37.
As for C40U A50U G51A C82A C85U, the “polymerase ribozyme fitness (log ratio)” value was -4.25.
To C31G G42U C72G C98U G107C C115U belongs -6.04; to C12U U55G U59C U133A, -0.128; to G45A G61A, -0.513.
To G61A U78G G107A C114U G117A belongs -6.96; to A27C C28U, -5.13; to U9C C40G U55A C76A C88G, -4.6.
Take C11U G35U G39U C56A G71U G122A: the “polymerase ribozyme fitness (log ratio)” value was -6.34.
Then C11A C12A U14G A18C G63C C85U A103G U106A G107A A108C C114U G117C, with -6.98; and C56U U130G, with -1.27; and C72G C86G U92A A111G G128U U132C, with -6.17.
For the variant U59C C80A U81C, the “polymerase ribozyme fitness (log ratio)” value was -3.7.
For the variant A100C U133G, the “polymerase ribozyme fitness (log ratio)” value is -1.12.
For U9A C13U G19U U78A A91G, the “polymerase ribozyme fitness (log ratio)” value is -3.32.
Then G10U G19C A37U C72A C123G U130C, with -1.39.
Take C28G C72A C102G G107A: the “polymerase ribozyme fitness (log ratio)” value is -7.59.
Then C15G G25U A37U G69U G120C, with -7.24.
With U7A C64U C89G A91U C97U C115U, the “polymerase ribozyme fitness (log ratio)” value is -2.72.
Consider C49A A66G C73U, for which the “polymerase ribozyme fitness (log ratio)” value was -1.61.
As for C72U G113C C123G, the “polymerase ribozyme fitness (log ratio)” value was -1.69.
For U21A A27G G51U U116C, the “polymerase ribozyme fitness (log ratio)” value is -7.29.
As for C49U A50U A95G U96A A111G, the “polymerase ribozyme fitness (log ratio)” value is -7.1.
For U21A A27C A46G C76G, the “polymerase ribozyme fitness (log ratio)” value was -2.54.
